Results published in publication PMC7343212, “Lactoferrin-Hexon Interactions Mediate CAR-Independent Adenovirus Infection of Human Respiratory Cells” (Journal of Virology, 2020).

Legend:
Assay in all cases: SPR
[1] = target: HAdV-B35 hexon (human adenovirus B35 (strain Holden))
[2] = target: HAdV-C5 hexon (human adenovirus C5 (strain Ad75)) (UniProt P04133)
[3] = target: HAdV-A31 hexon (human adenovirus A31 (strain 1315/63))

Row | Substance | Kd [1] [nM] | koff [1] [s⁻¹] | kon [1] [M⁻¹ s⁻¹] | Kd [2] [nM] | koff [2] [s⁻¹] | kon [2] [M⁻¹ s⁻¹] | Kd [3] [nM] | koff [3] [s⁻¹] | kon [3] [M⁻¹ s⁻¹]
1 | human lactoferrin (hLF) (natural protein) | 151 | 0.00354 | 25000 | 29 | 0.00154 | 53000 | 827 | 0.0101 | 12000
2 | human lactoferricin 1-49 (hLfcin1-49) (peptide) | 22100 | – | – | 730 | – | – | 187000 | – | –
